Measured values taken from patent US20070020327A1.

The binders below were run against HLA-A*0201 (human) (assay: competitive inhibition of 125I-labelled standard peptide binding to purified HLA, gel filtration; ratio = IC50 standard / IC50 test peptide). Details: not given.
VLVHPQWV (modifications not checked) [VLVHPQWV (PSA, position 49)] was tested, and the binding affinity ratio was 0.0001. In the case of VLVHPQWVL (modifications not checked) [… (Kallikrein, position 53), listing 1 of 2 here], the binding affinity ratio is reported as 0.02. Binder VLVHPQWVL (modifications not checked) [… (PSA, position 49), listing 2 of 2 here] has a binding affinity ratio of 0.02. VLVHPQWVLT (modifications not checked) [… (Kallikrein, position 53), listing 1 of 2 here] was tested, and the binding affinity ratio was 0.0001. For VLVHPQWVLT (modifications not checked) [… (PSA, position 49), listing 2 of 2 here], the binding affinity ratio was 0.0001. Work on VLVNEILNHM (modifications not checked) [… (PAP, position 262)] yielded a binding affinity ratio of 0.0008. VMDLPTQEPA (modifications not checked) [… (PSA, position 134)] showed a binding affinity ratio of 0.0001. VATARRPRWL (modifications not checked) [… (PSM, position 12)] showed a binding affinity ratio of 0.0001. VAYINADSSI (modifications not checked) [… (PSM, position 447)] showed a binding affinity ratio of 0.0001. VIGTLRGAV (modifications not checked) [… (PSM, position 358)] gave a binding affinity ratio of 0.0002. With VILLGRHSL (modifications not checked) [… (PSA, position 68)] the binding affinity ratio was 0.0003. For VISNDVCA (modifications not checked) [VISNDVCA (PSA, position 174)], the binding affinity ratio was 0.0001. VLLSYPNKT (modifications not checked) [… (PSM, position 115)] showed a binding affinity ratio of 0.0002. In the case of VLRKYADKI (modifications not checked) [… (PSM, position 603)], the binding affinity ratio is reported as 0.0002. VLRMMNDQL (modifications not checked) showed a binding affinity ratio of 0.0001. VLRMMNDQLM (modifications not checked) was tested, and the binding affinity ratio was 0.0003.

Same assay, conditions: remark: other sources report otherwise
For VISNDVCAQV (modifications not checked) [… (PSA, position 174)], the binding affinity ratio was 0.0008.

What follows are binders tested against HLA-A*0201 (human) (assay: inhibition of 125I-labelled standard peptide binding to purified HLA-A*0201, gel filtration). Details: not given.
Binder ATQIPSYKKL (modifications not checked) [… (PAP, position 274)] has a binding affinity ratio (IC50 of standard peptide / IC50 of test peptide) of 0.0002. AVCGGVLV (modifications not checked) [AVCGGVLV (PSA, position 44)] was tested, and the binding affinity ratio (IC50 of standard peptide / IC50 of test peptide) was 0.0003. With AVEPDRYVI (modifications not checked) the binding affinity ratio (IC50 of standard peptide / IC50 of test peptide) was 0.0001. For AVEPDRYVIL (modifications not checked), the binding affinity ratio (IC50 of standard peptide / IC50 of test peptide) was 0.0002. AVKVMDLPT (modifications not checked) [… (PSA, position 131)] showed a binding affinity ratio (IC50 of standard peptide / IC50 of test peptide) of 0.0001. Binder CALPERPSL (modifications not checked) [… (PSA, position 230)] has a binding affinity ratio (IC50 of standard peptide / IC50 of test peptide) of 0.0001. CAQVHPQKV (modifications not checked) showed a binding affinity ratio (IC50 of standard peptide / IC50 of test peptide) of 0.0002. Binder CAQVHPQKVT (modifications not checked) has a binding affinity ratio (IC50 of standard peptide / IC50 of test peptide) of 0.0001. CIRNKSVI (modifications not checked) [CIRNKSVI (PSA, position 62)] was tested, and the binding affinity ratio (IC50 of standard peptide / IC50 of test peptide) was 0.0001. CIRNKSVIL (modifications not checked) [… (PSA, position 62)] gave a binding affinity ratio (IC50 of standard peptide / IC50 of test peptide) of 0.0003.

Same assay, conditions: remark: other sources report otherwise
CALPEKPAV (modifications not checked) [… (Kallikrein, position 234)] showed a binding affinity ratio (IC50 of standard peptide / IC50 of test peptide) of 0.0002.
